Test results from ChEMBL document CHEMBL1687818, “Mechanistic studies of the inactivation of TEM-1 and P99 by NXL104, a novel non-beta-lactam beta-lactamase inhibitor” (Antimicrob Agents Chemother, 2010).

Substrate: C[C@]1(Cn2ccnn2)[C@H](C(=O)O)N2C(=O)C[C@H]2S1(=O)=O
Details: Enterobacter cloacae
Description: Activity of Enterobacter cloacae beta-lactamase P99 by spectrophotometry

B1: Beta-lactamase (Enterobacter cloacae), P05364 (protein)
chain: MMRKSLCCALLLGISCSALATPVSEKQLAEVVANTITPLMKAQSVPGMAVAVIYQGKPHYYTFGKADIAANKPVTPQTLFELGSISKTFTGVLGGDAIARGEISLDDAVTRYWPQLTGKQWQGIRMLDLATYTAGGLPLQVPDEVTDNASLLRFYQNWQPQWKPGTTRLYANASIGLFGALAVKPSGMPYEQAMTTRVLKPLKLDHTWINVPKAEEAHYAWGYRDGKAVRVSPGMLDAQAYGVKTNVQDMANWVMANMAPENVADASLKQGIALAQSRYWRIGSMYQGLGWEMLNWPVEANTVVEGSDSKVALAPLPVAEVNPPAPPVKASWVHKTGSTGGFGSYVAFIPEKQIGIVMLANTSYPNPARVEAAYHILEALQ
Question: For B1, which Km is on record?
Answer: 300 µM
